Experimental data published in article PMC5686756, “IKKγ-Mimetic Peptides Block the Resistance to Apoptosis Associated with Kaposi's Sarcoma-Associated Herpesvirus Infection” (Journal of Virology, 2017).

Key:
ks-vFLIP = conditions: IKKγ(150–272) at 30 μM; 30 μM ks-vFLIP unless otherwise stated, SYPRO orange; repeated at least 3 times
Description: To achieve this, an unmodified 30-mer peptide (residues 224 to 253) was designed to encompass the interacting motif and neighboring residues along with a 21-mer (residues 226 to 248), only marginally longer than the motif itself (residues 230 to 248 [Fig. 2B]). These were commercially synthesized and their ability to associate with ks-vFLIP was assessed using a thermofluor assay (Fig. 2C and D).
Thermofluor studies were conducted using the MyIQ reverse transcription-PCR (RT-PCR) system (Bio-Rad) in a 96-well plate format. Trials were performed in which 30 μM ks-vFLIP (unless otherwise stated) was combined with either IKKγ or mimetic peptides (at the specified concentrations) prior to the addition of SYPRO orange diluted in a 1:1,000 (vol/vol) ratio and thermal denaturation. The data were subsequently processed using the Bio-Rad iQ5 software. Each experiment was repeated at least 3 times.

IKKγ = test: Thermofluor assay, thermal denaturation of IKKγ alone; assay type: physicochemical; conditions: various concentrations, SYPRO orange
Text: FIG 2 vFLIP-IKKγ interaction and peptide thermofluor analysis. (A) (Left) Cartoon depiction of the ks-vFLIP–IKKγ heterotetramic complex (PDB code 3CL3). The IKKγ and ks-vFLIP monomers are shown in gray and wheat, respectively. (Right) The ks-vFLIP-IKKγ dimer interface highlighting cleft 1 (white) and cleft 2 (cyan). Residues essential for the formation of the cleft 1 interactions (H235, F238, D242, and K246) are colored magenta, and those that interact with cleft 2 (Q236 and E240) are colored blue. (B) IKKγ ks-vFLIP minimal interacting motif (residues 230 to 248) together with those forming the 30- and 21-mer peptides (pink and violet, respectively) used in the thermofluor studies. (C) Thermal denaturation profiles for ks-vFLIP (left) and IKKγ (right) at various concentrations. […] (D) Thermal denaturation of ks-vFLIP in the presence of various concentrations of IKKγ (left) and the 21-mer (pink) and 30-mer (violet) (right) peptides.
Each experiment was repeated at least 3 times. All peptides were purchased from Eurogentec.

GB1–ks-vFLIP = target: T1, GB1–ks-vFLIP (Human herpesvirus 8 type P, UniProt F5HEZ4); test: biochemical; assay type: binding, Kaposi's sarcoma-associated herpesvirus
T1 construct: ks-vFLIP (residues 1 to 188) was PCR cloned into the EcoRI and XhoI sites of GB1-pBR22b; 6His (C); made in house; host or cells: E. coli BL21(DE3)
Description: We next sought to assess the affinity of spIKKγ for vFLIP using isothermal calorimetry (ITC).
Isothermal calorimetry (ITC) experiments were performed using a Microcal VP-ITC micocalorimeter (MicroCal). For all binding reactions, syringe concentrations varied between ∼85 and 100 μM for IKKγ(150–272) and cell concentrations between ∼8 and 10 μM for GB1-vFLIP. Titrations consisted of an initial 2-μl injection, followed by 20 10-μl injections with stirring at 300 rpm. In competition assays, GB1–ks-vFLIP was first incubated with 20 μM spIKKγ and DMSO to 4% prior to loading into the cell and titration with IKKγ(150–272). All ITC binding experiments were performed in deionized water at 25°C owing to the buffer constraints of spIKKγ, GB1–ks-vFLIP, and IKKγ(150–272), where GB1–ks-vFLIP and IKKγ(150–272) were buffer matched by overnight dialysis, followed by the addition of 4% DMSO to each. […] Following collection, all data were analyzed using ORIGIN 70 software and fitted to a one-site binding model with each experiment performed at least in triplicate.

T1 sequence (F5HEZ4 whole entry, the tested form may be a part): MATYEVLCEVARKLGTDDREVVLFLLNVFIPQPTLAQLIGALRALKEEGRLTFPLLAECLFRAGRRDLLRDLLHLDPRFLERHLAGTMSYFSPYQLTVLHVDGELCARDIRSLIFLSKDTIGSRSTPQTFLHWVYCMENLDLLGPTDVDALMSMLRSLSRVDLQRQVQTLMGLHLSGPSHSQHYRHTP

B1: IKKγ(150–272): IKKγ fragment encompassing residues 150 to 272 (protein)
chain: LGELQESQSRLEAATKECQALEGRARAASEQARQLESEREALQQQHSVQVDQLRMQGQSVEAALRMERQAASEEKRKLAQLQVAYHQLFQEYDNHIKSSVVGSERKRGMQLEDLKQQLQQAEE
ks-vFLIP
  shift in melting temperature of ks-vFLIP: ~8 °C
IKKγ
  thermal denaturation response of IKKγ: lack of a significant response
GB1–ks-vFLIP; GB1–ks-vFLIP preincubated with 20 μM spIKKγ, 4% DMSO, deionized water, 25°C, at least triplicate
  apparent dissociation constant (Kd) of the vFLIP-IKKγ interaction in the presence of peptide: 30 µM
GB1–ks-vFLIP; ITC
  binding affinity for ks-vFLIP, spIKKγ compared with IKKγ(150–272): nearly equivalent binding affinities
